Results on two variants are retold here after IntAct's records for PubMed 28302851.

B1: Circadian clock oscillator protein KaiB (Thermosynechococcus elongatus (strain BP-1)), Q79V61 (parent)
chain: MAPLRKTYVLKLYVAGNTPNSVRALKTLNNILEKEFKGVYALKVIDVLKNPQLAEEDKILATPTLAKVLPPPVRRIIGDLSNREKVLIGLDLLYEEIGDQAEDDLGLE
partner: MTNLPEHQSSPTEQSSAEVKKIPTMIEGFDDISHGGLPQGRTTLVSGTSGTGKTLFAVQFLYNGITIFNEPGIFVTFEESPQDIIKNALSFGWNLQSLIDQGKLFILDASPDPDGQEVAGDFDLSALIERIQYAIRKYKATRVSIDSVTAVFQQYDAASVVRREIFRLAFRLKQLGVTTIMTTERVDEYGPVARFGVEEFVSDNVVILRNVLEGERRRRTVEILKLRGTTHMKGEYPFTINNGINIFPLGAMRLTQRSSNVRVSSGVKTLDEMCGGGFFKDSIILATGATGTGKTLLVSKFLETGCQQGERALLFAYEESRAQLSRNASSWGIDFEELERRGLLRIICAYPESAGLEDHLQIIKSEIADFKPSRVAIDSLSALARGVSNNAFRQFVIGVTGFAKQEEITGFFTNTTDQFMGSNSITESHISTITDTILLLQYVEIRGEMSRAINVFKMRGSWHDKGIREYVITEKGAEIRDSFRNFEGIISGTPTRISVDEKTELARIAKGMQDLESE
B2: Circadian clock oscillator protein KaiB (Thermosynechococcus elongatus (strain BP-1)), Q79V61 (parent)
chain: B1 chain
partner: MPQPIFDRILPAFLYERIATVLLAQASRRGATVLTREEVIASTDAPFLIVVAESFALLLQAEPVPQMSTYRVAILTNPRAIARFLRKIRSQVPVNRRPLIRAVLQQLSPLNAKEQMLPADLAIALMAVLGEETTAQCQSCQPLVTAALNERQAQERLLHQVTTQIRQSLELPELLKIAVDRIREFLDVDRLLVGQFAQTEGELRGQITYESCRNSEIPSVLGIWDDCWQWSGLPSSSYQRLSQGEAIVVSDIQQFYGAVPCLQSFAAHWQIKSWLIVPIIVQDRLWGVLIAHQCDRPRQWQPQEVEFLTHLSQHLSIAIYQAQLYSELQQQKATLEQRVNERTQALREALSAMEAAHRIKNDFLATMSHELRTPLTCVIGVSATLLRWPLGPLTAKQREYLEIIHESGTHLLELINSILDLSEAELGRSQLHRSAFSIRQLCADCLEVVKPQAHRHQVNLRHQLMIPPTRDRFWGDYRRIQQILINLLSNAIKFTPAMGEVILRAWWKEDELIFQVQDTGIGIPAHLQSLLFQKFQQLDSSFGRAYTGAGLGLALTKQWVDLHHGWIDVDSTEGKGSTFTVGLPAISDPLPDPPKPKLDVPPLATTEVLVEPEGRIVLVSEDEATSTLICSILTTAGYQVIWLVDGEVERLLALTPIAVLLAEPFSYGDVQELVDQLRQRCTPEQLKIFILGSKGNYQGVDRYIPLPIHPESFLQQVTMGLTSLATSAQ

The first assay covers variants of B1. Particulars: with kaic_thevb kaiC.
Y8A;I88A;Y94A: the “effect of a mutation on the interaction” value was “with no effect”.

The variants in another assay derive from B2. Particulars: with cika_thevb cikA.
With N29A, the “effect of a mutation on the interaction” value was “with no effect”.
